A short description of this series: yeast display, Sf9 membrane polyspecificity reagent, FACS + sequencing; frameworks hold sequencing errors. Put shortly: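 Nanobodies from a synthetic yeast display library (Saccharomyces cerevisiae BJ5465), induced 36–48 hours with galactose, were stained 1 hour at 4 °C with 10% biotinylated, detergent-solubilized Sf9 membrane reagent, enriched on streptavidin microbeads, then FACS-sorted. Anti-HA (expression) and streptavidin (reagent binding) fluorescence set low and high (top ~1%) gates. Polyreactivity labels come from the gate of origin. Genes were colony-PCR amplified, MiSeq 2 × 250 sequenced and filtered by CDR length.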
With “QVQLVESGGGLVQAGGSLRLSCAASGGTFALNAMGWYRQAPGKERELVADIDGRGGSTYYADSVKGRFTISRDNAKNTVYLQMNSLKPEVTAVYYCAARAPFLSVPSELDYWGQGTQVTVSS”, the “polyreactivity (PSR sort gate)” value was “low polyreactivity”.

In the case of “QVQLVESGGGLVQAGGSLRLSCAASGSTFRYYAMGWYRQAPGKERELVAAISKSGGRTYYADSVKGRFTISRDNAKNTVYLEMNSLKPEDTAVYYCAADCVARYQKGQYDYWGQGTQVTVSS”, the “polyreactivity (PSR sort gate)” value was “high polyreactivity”. The result for “QVQLVESGGGLVQAGGSLSLSCAASGSIFGRNTMGWYRQAPGKERELVAAITLRGGSTYYADSVKGRFTISRDNAKKTVYLQMNSLKPEDTSDYYCATDGWKQSAYDYWGQGTQVTVSS” reads “low polyreactivity”. Under “QVKLVESGGGLVKAGASLRLSCAASGSTLQHYAMGWYRQAPGKERELVAAINRSGDRTYYADSVKGRFTISRDNAKTTVYLQMNSLKPEDTPVDYCAAYDDYRAPVRYEYWGQGTQVTVSS” stands “high polyreactivity”; under “QDKLVESGGGLVQAGGSLRLICAASGFTFNRYALGWYRKAPGKERELVAGITGGGSTKYADSVKGRFTISRDNAKNTVYLQMNSLKPEDTSVYYCNASGYSYGARYYYWGQGTQVTVSS”, “high polyreactivity”.

With “QVQIVESGGGLVQAGRSLRLSCAASGRTFYRNAMGWYRQAPGKERELVAAITWRTGNTYFADSVKGRFTISRDNAKNTVYLQMNSLKQEDTAVYYCNRVPYYGHPFRVSGDYWGQCTQVTVSS”, the “polyreactivity (PSR sort gate)” value is on record as “low polyreactivity”. As for “QVQLVESGGGLVQAGGSLRLSCAASGRNFYYYAMGWYRQAPGKERELVAGISWSAGSTYYADSVKGRFTISRDNAKNTVYLQMNSLKPEDTAVYYCAARYWQSYRSQVTHSSTLDYWGQGTQVTVSS”, the “polyreactivity (PSR sort gate)” value is listed as “low polyreactivity”. As to “QVQLVESGGGLVQAGGSLRLSCAASGITFTYYAMGWYRQAPGKERELVAAITWRGGSTYYADSVKGRFTISRDNAKNTVYLQMNSLKPEDTAVYYCAADVYVGPYHYEYWGQGTQVTVSS”, the “polyreactivity (PSR sort gate)” value is recorded as “high polyreactivity”. “QVQLVESGGGLVQAGGSLRLSCAASGRTFDGYTMGWYRQAPGKERELVAAIRRSGGSTYYADSVKGRFTISRDNAKNTVYLQINSLNPEDTAVYYCAASWRDIYRHYNVYPYDYWGQGTQVTVSS”: the “polyreactivity (PSR sort gate)” value is “low polyreactivity”. The result for “QVQLVESRGVLVQAGGSLRLSCAASGFTFYHYAMGWYRQAPGKDRELVAALDNGGSTYADSVKGRFTISRDNATNTVSLQRNSLKPEDTAVYYCAAVYLRYINGFYFWGQGTQVTVSS” reads “low polyreactivity”; that for “QVQLVESGGGLVQAGGSLRLSCAATRSIFFGYAMGWYRQAPGKEREFVAAITASGVRTYYADSVKGRFTISLDNAKNTVYLQMNSLKPEDTAVYYCAARIGTGVLPGRGANSHMDYWGQGTQVTVSS”, “low polyreactivity”. Under “QVQLVESRGGLVQAGGSLRLSCAASGRIYSVYDMGWYRQAPGKESEFVAAIRSSGDSTYYADSVKGRFTISRDNAKNTVYLQMNSLKPDDTAVYYCAADVYRYRVRGLNYWGQGTQVTVSS” stands “high polyreactivity”. As for “QEQLQESGGGQVQAGGSLLLSCAASGNIIRYYYMGWYRQAPGKERELVAAITYGTSTNYADSVKGRFTISRDNAKNTVYLQMNSLKPEDTAVYYCAVVVNYGDPLDNWGQGTQVTVSS”, the “polyreactivity (PSR sort gate)” value is “high polyreactivity”.

On to “QVQLVESGGGLVQPGGSLRLSCAASGRIFYRYAMGWYRQAPGKERELVAAITARGGSTYYADSVKGRFTISRDNAKNTVYLQMNCLKPEDTAVYYCNKLLSNPYYPSYDYWGQGTQVTVSS”, for which the “polyreactivity (PSR sort gate)” value is on record as “high polyreactivity”.

As for “QVQLVESGGGLVQAGGSLRLSCAASGSMFYKNAMVWYRQAPGKEREMVAAINSVGSTDYADSVKGRFTISRDNAKNTVYLQMNSLTPEDTAVYYCAATNLFTIIDYDYWGQGTQVTVSS”, the “polyreactivity (PSR sort gate)” value is “low polyreactivity”.

“QVKLVESGGGLVQAGGSLRLICAASGRISQSNAMGRYRQAPGKERELVAAISWRGGSTYYADSVMGRFTISRDNAKNTVYLQMNSLKPEDTAVYYSAVRGKYDRHYYWGQGTQVTVSS”: the “polyreactivity (PSR sort gate)” value is reported as “high polyreactivity”.

Consider “QVQLVESGGGLVQAGGSLRLSCAASGITFRFNAMGWYRQAPGKEREFVAAITYSGDSTYYADSVKGRFTISRDNAKNTVYLQMNSLKPEDTAVYYCAADASSKLYDYWGQGTQVTVSS”, for which the “polyreactivity (PSR sort gate)” value is listed as “low polyreactivity”.

On to “QVQLVETGGGLVQAGVSLRLSSAASGLTYTQYALGWYRQAPGKERELVAAITSGGRRYYADSVKGRFTISRDNAKNTVYLQMNSLKPEDTAVYYCAVRGWCSARGMDYWGQGTQVTVSS”, for which the “polyreactivity (PSR sort gate)” value is “high polyreactivity”.

Consider “QVQLVESGGVLVQAGGSLRLSCAASGLDYYAIGWYRQAPGKERELVAAIDWSGVSTYYADSVKGRFTISRDNAKNTVYLQMNSLKPEDTAVDYCAALYYGWPRVSYGLGEYGYWGQGTQVTVSS”, for which the “polyreactivity (PSR sort gate)” value is “low polyreactivity”.

As to “QVQLVESGGGLVQAGGSLRLSCAASGRIFRDYSMGWYRQAPGKETELVATITWSGATTYYADSVKGRFTISRDNAKNTVYLQMNSLKPEDTAVYYCNTDTDVDVAFDSWGQGTQVTVSS”, the “polyreactivity (PSR sort gate)” value is on record as “low polyreactivity”. For “QDQLVVSGGGLVQAGGSLRLSCAASGFIFYRYSMGWYSQEPGKEREVVASITRSGGSTYYAASVKGRFTISRDKAKNTLYLPMNSLKPVETAVYYCATAIRYFVSYDYWGQGTEVTVSS”, the “polyreactivity (PSR sort gate)” value is listed as “high polyreactivity”. As for “QVQLVESGGGLVQAGASLRLSCAASGSIFKDYAMGWYRQAPWKERDLLAAITSRTSTTYADSVKGRFTISRDNAKNTVYLQMNSLKPEDTAVYYCAVEDLGSEGWGWYKEMDYWGQGTQVTVSS”, the “polyreactivity (PSR sort gate)” value is on record as “low polyreactivity”.

Turning to “QCQLVESGGGLVQAGGSLLLSCAASGFIFNRNAMGWSRQAPGKEREFVSAISTLGAGTYYADSVKGRFTISRDNAKNTVYLQMNSLKPEDTAVYYCAADIFRYGYYNRYSKVGYDYWGQGTQVTVSS”, the “polyreactivity (PSR sort gate)” value was “high polyreactivity”.

With “QVQLVESGGGLVQAGGRLRLSCAASGSISGYYAMGWYRQAPGKERELVASIRYTGARTYYADSVKGRFTISRDNAKNNVYLQMNSLKPEDTAVYYCAADVKRDRVWGGDYWGQGTQVTVSS”, the “polyreactivity (PSR sort gate)” value is “low polyreactivity”. As to “QVQLLESGGGLVQAGGSLRLSCAASGSIFYYYTMGWYRQAPGKETELVAAISRGGSTNYADSVKGRFTISRDNAKNTVYLQMNSLKPEDTAVYYCAADRLSGRYAYRFDYWGQGTQVTVSS”, the “polyreactivity (PSR sort gate)” value is “low polyreactivity”. The result for “QVQLVESGGGLVQAGGSHRLSCAASGSTFSYNTMGWYRQAPGKERELVAAIRSGGSTYYADSVKGRFTISRDNAKNTVYLQMNSLKPEDTAVYYCATDKFHRKVLHWYDYWGQGTQVTVSS” reads “low polyreactivity”; that for “QVQLVETGGGLVQAGGSLRLSSAASGITSNSYAMGWYRQAPGKERELVATITSGGSTNYADSVKGRFTITLDNAKNSVYLQMNSLKPEDTAVYYCNREYWLPTQYDYWGQGTQVTVSS”, “low polyreactivity”; that for “QVQLVESGGGFVQAGGSLRLSCAASGSILSGYAMGWYRPAPGKERELVAAITSGGDTNYADSVKGRFTISRDNAKNTVYLQMNSLKPEDTAVYYCNRRGDFRIAYYDPMDYWGQGTQVTVSS”, “low polyreactivity”.

For “QVQLVESGGGLVQAGGSLRLTCAASGSTFAFYAMGWYRQAPGKERELVAAITLIGGNTYYADSVKGRFTISRDNAKNTVYLQMYSLKPEDTAVYYFAAGGYYVRYPKSWYNYWGQGTQVTVSS”, the “polyreactivity (PSR sort gate)” value is reported as “low polyreactivity”.

On to “QVQLVESGGCLVQAGGSLRLSCAASGFTFSRYNMGWYRQAPGKESELVATISWSGSRTYYADSVKGRFTISRDNAKNTVYLQINSLKPDDTAFYYCNFAPHRQVFYTGQYDYWGQGTQVTVSS”, for which the “polyreactivity (PSR sort gate)” value is on record as “high polyreactivity”.

(Values after the nanobody polyreactivity screen of Harvey et al. (2022).)
